In IntAct's records for PubMed 16284401:

B1: Crk-like protein (Rattus norvegicus (Rat)), Q5U2U2 (parent)
chain: MSSARFDSSDRSAWYMGPVSRQEAQTRLQGQRHGMFLVRDSSTCPGDYVLSVSENSRVSHYIINSLPNRRFKIGDQEFDHLPALLEFYKIHYLDTTTLIEPAPRYPNPPMGSVSAPNLSTAEENLEYVRTLYDFPGNDAEDLPFKKGELLVIIEKPEEQWWSARNKDGRVGMIPVPYVEKLVRSSPHGKHGNRNSNSYGIPEPAHAYAQPQTTTPLPTVASTPGAAINPLPSTQNGPVFAKAIQKRVPCAYDKTALALEVGDIVKVTRMNINGQWEGEVNGRKGLFPFTHVKIFDPQNPDDNE
B2: Kinase D-interacting substrate of 220 kDa (Rattus norvegicus (Rat)), Q9EQG6 (parent)
chain: MSVLISQSVINYVEEENIPALKALLEKCKDVDERNECGQTPLMLAAEQGNVEIVKELLKNGANCNLEDLDNWTALISASKEGHIHIVEELLKSGASLEHRDMGGWTALMWACYKGRTDVVELLLSHGANPSVTGLYSVYPIIWAAGRGHADIVHLLLQNGAKVNCSDKYGTTPLVWAARKGHLECVKHLLAMGADVDQEGANSMTALIVAVKGGYTQSVKEILKRNPNVNLTDKDGNTALMIASKEGHIEIVQDLLDAGTYVNIPDRSGDTVLIGAVRGGHVEIVRALLQKYADIDIRGQDNKTALYWAVEKGNATMVRDILQCNPDTEICTKDGETPLIKATKMRNIEVVELLLDKGAKVSAVDKKGDTPLHVAIRGRSRRLAELLLRNPKDGRLLYRPNKAGETPYNIDCSHQKSILTQIFGARHLSPTETDGDMLGYDLYSSALADILSEPTMQPPICVGLYAQWGSGKSFLLKKLEDEMKTFAGQQTEPLFQFSWLIVFLTLLLCGGLGLVFAFTVDTNLAIAISLSFLALIYIFFIVIYFGGRREGESWNWAWALSTRLARHIGYLELLFKLMFVNPPELPEQTTKALPVRFLFTDYNRLSSVGGETSLAEMIATLSDACEREFGFLATRLFRVFRTEESQGKKKWKKTCCLPSFVIFLFIVGCIIAGITLLAIFRVDPKHLTVNAILISIASVVGLAFVLNCRTWWQVLDSLLNSQRKRLHSAASKLHKLKSEGFMKVLKCEVELMARMAKTIDSFTQNQTRLVVIIDGLDACEQDKVLQMLDTVRVLFSKGPFIAIFASDPHIIIKAINQNLNSVLRDSNINGHDYMRNIVHLPVFLNSRGLSNARKFLVTSATNGDITCSDTTGTQEDTDRRVSQNSLGEMTKLGSKTALNRRDTYRRRQMQRTITRQMSFDLTKLLVTEDWFSDISPQTMRRLLNIVSVTGRLLRANQITFNWDRLASWINLTEQWPYRTSWLILYLEETEGLPDQMTLKTIYERISKNIPTTKDVEPLLEIDGDIRNFEVFLSSRTPVLVARDVKTFLPCTVNLDPKLREIIADVRAAREQINIGGLAYPPLPLHEGPPRPPSGYSQPASVCSSASFNGPFPGGVVSPQPHSSYYSGLSGPQHPFYNRPFFAPYLYTPRYYPGGSQHLISRSSVKTSLPRDQNNGLPCDSGFNKQRQAAVPATGSSLLLSSMTVDVVCEKLRQIEGLDQSMMPQYCTTIKKANINGRVLSQCNIDELKKEMAMNFGDWHLFRSMVLEMRSVESQVVPEDPRFLNENSSAPVPHGESARRSSHTELPLTELSSQTPYTLNFSFEELNTLGLDEGAPRHSNLSWQSQTRRTPSLSSLNSQDSSIEISKLTDKVQAEYRDAYREYIAQMSQLEGGTGSSTISGRSSPHSTYYIGQSSSGGSIHSTLEQERGKEGELKQEDGRKSFLMKRGDVIDYSSSGVSTNEASPLDPITEEDEKSDQSGSKLLPGKKSSERPSLFQTDLKLKGGGLRYQKLPSDEDESGTEESDNTPLLKDDKDKKAEGKAERVCKSPEHSAEPIRTFIKAKEYLSDALLDKKDSSDSGVRSNESSPNHSLHNEAADDSQLEKANLIELEDEGHSGKRGMPHSLSGLQDPIIARMSICSEDKKSPSECSLIASSPEESWPACQKAYNLNRTPSTVTLNNNTAPTNRANQNFDEIEGIRETSQVILRPGPSPNPTAVQNENLKSMAHKRSQRSSYTRLSKDASELHAASSESTGFGEERESIL

Variants of: B1
Settings: with kdis_rat Kidins220, Q9EQG6

effect of a mutation on the interaction	Variant
decreasing interaction	R39N

Variants of: B2
Settings: with crkl_human CRKL

effect of a mutation on the interaction	Variant
decreasing interaction	Y1095F

Variants of: B2
Settings: with crkl_rat Crkl, Q5U2U2

effect of a mutation on the interaction	Variant
decreasing interaction	Y1095F
